T1: mouse iRhom2 (Mus musculus, UniProt Q80WQ6)
T1 construct: MEF-DKO-miR2-FL-WT-T7 cells stably expressing mouse iRhom2 full length wild type; expressed in transfected cells; host or cells: immortalized iRhom1/2-/- DKO mouse embryonic fibroblasts, pMSCV retroviral infection
T1 sequence (Q80WQ6 1-827): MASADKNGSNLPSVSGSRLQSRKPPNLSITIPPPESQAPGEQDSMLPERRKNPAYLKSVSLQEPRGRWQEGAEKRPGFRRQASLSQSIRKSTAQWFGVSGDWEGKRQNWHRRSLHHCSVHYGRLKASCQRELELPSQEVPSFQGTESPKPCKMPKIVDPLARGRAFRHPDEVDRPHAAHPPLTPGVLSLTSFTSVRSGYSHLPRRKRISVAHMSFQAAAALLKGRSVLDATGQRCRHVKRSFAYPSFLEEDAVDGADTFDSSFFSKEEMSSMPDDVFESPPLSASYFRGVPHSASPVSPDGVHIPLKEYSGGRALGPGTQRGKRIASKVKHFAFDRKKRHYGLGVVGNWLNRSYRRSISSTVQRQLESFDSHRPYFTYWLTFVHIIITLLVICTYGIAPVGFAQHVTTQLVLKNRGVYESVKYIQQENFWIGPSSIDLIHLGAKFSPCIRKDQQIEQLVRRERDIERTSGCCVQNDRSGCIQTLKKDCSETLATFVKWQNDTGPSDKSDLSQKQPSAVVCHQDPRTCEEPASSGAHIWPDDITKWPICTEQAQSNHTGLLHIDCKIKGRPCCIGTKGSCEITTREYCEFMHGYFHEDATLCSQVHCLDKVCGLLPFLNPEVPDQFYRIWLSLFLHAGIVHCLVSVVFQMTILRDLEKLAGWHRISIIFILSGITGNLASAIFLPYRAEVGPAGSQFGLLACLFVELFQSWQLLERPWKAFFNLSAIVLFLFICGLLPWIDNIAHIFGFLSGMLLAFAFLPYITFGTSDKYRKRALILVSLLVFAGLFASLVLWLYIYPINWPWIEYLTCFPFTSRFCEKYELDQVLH

B1: 16-B-03: humanized antibody binding human iRhom2; HCVD SEQ ID NO 1, LCVD SEQ ID NO 5 (antibody, V domains shown)
VH: QVTLRESGPALVKPTQTLTLTCTFSGFSLSTFALGVGWIRQPPGKALEWLAHIWWDDDKYYNPALKSRLTISKDTSKNQVVLTITNMDPVDTATYYCARITTYYYGMDYWGQGTLVTVSS
VL: EIVMTQSPDFQSVTPKEKVTITCRASQSIGNHLHWYQQKPDASPKLLIKYASQSISGVPSRFSGSGSGTDFTLTINSLEAEDAATYFCQQSYQWPLTFGQGTKLEIK
modifications: antibody sequences
B2: 16-B-05: humanized antibody binding human iRhom2; HCVD SEQ ID NO 9, LCVD SEQ ID NO 13 (antibody, V domains shown)
VH: QVTLRESGPALVKPTQTLTLTCTFSGFSLSTFALGVGWIRQPPGKALEWLAHIWWDEDKYYNPALKSRLTISKDTSKNQVVLTITNMDPVDTATYYCARITTYYYGMDYWGQGTLVTVSS
VL: EIVMTQSPDFQSVTPKEKVTITCRASQSIGNHLHWYQQKPDASPKLLIKYASQSISGVPSRFSGSGSGTDFTLTINSLEAEDAATYFCQQSYNWPLTFGQGTKLEIK
modifications: antibody sequences
B3: 16-B-07: humanized antibody binding human iRhom2; HCVD SEQ ID NO 17, LCVD SEQ ID NO 21 (antibody, V domains shown)
VH: QVTLRESGPALVKPTQTLTLTCTFSGFSLSTFALGVGWIRQPPGKALEWLAHIWWDEDKYYNPALKSRLTISKDTSKNQVVLTITNMDPVDTATYYCARITTYYYGMDYWGQGTLVTVSS
VL: EIVMTQSPDFQSVTPKEKVTITCRASQSIGNHLHWYQQKPDASPKLLIKYASQSISGVPSRFSGSGSGTDFTLTINSLEAEDAATYFCQQSYQWPLTFGQGTKLEIK
modifications: antibody sequences
B4: 23-B-04: humanized antibody binding human iRhom2; HCVD SEQ ID NO 25, LCVD SEQ ID NO 29 (antibody, V domains shown)
VH: QVTLRESGPALVKPTQTLTLTCTFSGFSLSTFGMGVGWIRQPPGKALEWLAHIWWDDEKYYNSALKSRLTISKDTSKNQVVLTITNMDPVDTATYYCARISNYGSNYWYFNVWGQGTLVTVSS
VL: AIQLTQSPSSLSASVGDRVTITCRASSSVSYMYWYQQKPGKAPKVLIYDTSNLASGVPSRFSGSGSGTDYTLTISSLQPEDFATYYCQQWNAYPLTFGQGTKLEIK
modifications: antibody sequences
B5: 42-B-02: humanized antibody binding human iRhom2; HCVD SEQ ID NO 33, LCVD SEQ ID NO 37 (antibody, V domains shown)
VH: QVTLRESGPALVKPTQTLTLTCTFSGFSLSTFGRGVGWIRQPPGKALEWLAHIWWDDEKYYNSALKSRLTISKDTSKNQVVLTITNMDPVDTATYYCARIQNYGSNYWYFDVWGQGTLVTVSS
VL: AIQLTQSPSSLSASVGDRVTITCRASSRISYMFWYQQKPGKAPKVLIYDTSNLASGVPSRFSGSGSGTDYTLTISSLQPEDFATYYCQQWNSYPLTFGQGTKLEIK
modifications: antibody sequences
B6: 42-B-04: humanized antibody binding human iRhom2; HCVD SEQ ID NO 41, LCVD SEQ ID NO 45 (antibody, V domains shown)
VH: QVTLRESGPALVKPTQTLTLTCTFSGFSLSTFGRGVGWIRQPPGKALEWLAHIWWDDEKYYNSALKSRLTISKDTSKNQVVLTITNMDPVDTATYYCARIQNYGSNYWYFDVWGQGTLVTVSS
VL: AIQLTQSPSSLSASVGDRVTITCRASSRISYMFWYQQKPGKAPKVLIYDTSNLASGVPSRFSGSGSGTDYTLTISSLQPEDFATYYCQQWNAYPLTFGQGTKLEIK
modifications: antibody sequences

Target: T1, mouse iRhom2
Assay: FACS mouse cross-reactivity on MEF-DKO-miR2-FL-WT-T7 cells
Format: binding
Settings: antibody at 3 μg/ml
Description: Next, immortalized iRhom1/2−/− DKO MEFs were reconstituted with a tagged form of human iRhom2 to test target recognition of humanized antibodies of the invention. Additionally, iRhom1/2−/− DKO MEFs stably expressing a tagged form of mouse iRhom2 were generated in order to determine cross-reactivity of the humanized antibodies 16-B-03, 16-B-05, 16-B-07, 23-B-04, 42-B-02 and 42-B-04 of the invention with the mouse orthologue of iRhom2.
In brief, on day 1, Phoenix-ECO cells (American Type Culture Collection, USA) were seeded on 6-well tissue culture plates (Greiner, Germany) in standard growth medium at 8×10^5 cells per well and kept overnight at 37° C., 5% CO2. On day 2, the medium was replaced by fresh medium supplemented with chloroquine (Sigma-Aldrich, USA) at a final concentration of 25 μM. Applying the calcium phosphate method, cells were transfected with 2 μg/ml of pMSCV (Clontech, USA) empty vector, pMSCV-hiR2-FL-WT-T7 encoding human iRhom2 full length wild type C-terminally tagged with 3 consecutive copies of the T7 epitope (MASMTGGQQMG) or pMSCV-miR2-FL-WT-T7 encoding mouse iRhom2 full length wild type C-terminally tagged with 3 consecutive copies of the T7 epitope, and were kept at 37° C., 5% CO2. After 7 hours, the transfections were stopped by replacing cell supernatants with standard growth medium lacking chloroquine, and cells were incubated at 37° C., 5% CO2 to allow virus production overnight. In parallel, immortalized iRhom1/2−/− DKO MEFs as target cells for retroviral infection were seeded on 6-well tissue culture plates (Greiner, Germany) in standard growth medium at 1×10^5 cells per well and were also kept overnight at 37° C., 5% CO2. On day 3, the supernatants of Phoenix-ECO cells releasing pMSCV, pMSCV-hiR2-FL-WT-T7 or pMSCV-miR2-FL-WT-T7 ecotrophic virus were collected, filtered with 0.45 μm CA filters, and supplemented with 4 μg/ml of polybrene (Sigma-Aldrich, USA). Upon removal of medium from the immortalized iRhom1/2−/− DKO MEFs, the virus containing supernatants were added to the target cells for 4 hours at 37° C., 5% CO2 for first infection. Simultaneously, Phoenix-ECO cells were re-incubated with fresh medium, which, after another 4 hours, was filtered and used for the second infection of the respective target cell populations, again in the presence of 4 μg/ml of polybrene. Likewise, a third, but overnight infection cycle was performed. On day 4, virus containing cell supernatants were replaced by fresh standard growth medium. From day 5 onwards, cells were grown in the presence of 2 mg/ml of geneticin (G418, Thermo Fisher Scientific, USA) for the selection of immortalized MEF-DKO-EV control cells stably infected with pMSCV empty vector, MEF-DKO-hiR2-FL-WT-T7 cells stably expressing human iRhom2 full length wild type C-terminally tagged with 3 consecutive copies of the T7 epitope, and MEF-DKO-miR2-FL-WT-T7 cells stably expressing mouse iRhom2 full length wild type C-terminally tagged with 3 consecutive copies of the T7 epitope. Upon propagation, cells were stocked for future usage.
In brief, immortalized MEF-DKO-EV control cells, MEF-DKO-hiR2-FL-WT-T7 cells and MEF-DKO-miR2-FL-WT-T7 cells were harvested with 10 mM EDTA in PBS, washed and resuspended in FACS buffer (PBS, 3% FBS, 0.05% sodium azide), and seeded in Nunc U-bottom 96-well plates (Thermo Fisher Scientific, USA) at approximately 3×10^5 cells per well. To pellet cells and remove supernatants, the plates were centrifuged at 1,500 rpm and 4° C. for 3 minutes. For primary staining, cells were resuspended in 100 μl per well of either FACS buffer alone (controls), mouse monoclonal anti-T7 IgG (Merck Millipore, USA) at 3 μg/ml FACS buffer or the humanized antibodies 16-B-03, 16-B-05, 16-B-07, 23-B-04, 42-B-02 and 42-B-04 of the invention also at 3 μg/ml FACS buffer and incubated on ice for 1 hour. Afterwards, plates were centrifuged at 1,500 rpm and 4° C. for 3 minutes and washed twice with 200 μl per well of FACS buffer. […]

Row | Molecule | binding to mouse iRhom2 on MEF-DKO-miR2-FL-WT-T7 cells (mouse cross-reactivity)
1 | B1 | no significant binding
2 | B2 | none of these humanized antibodies of the invention are cross-reactive
3 | B3 | none of these humanized antibodies of the invention are cross-reactive
4 | B4 | none of these humanized antibodies of the invention are cross-reactive
5 | B5 | none of these humanized antibodies of the invention are cross-reactive
6 | B6 | none of these humanized antibodies of the invention are cross-reactive
